Experimental data published in patent US20170088631A1.
Values belong to the substance of their own block, whether it stands above or below them.

Experiments:
[1] = target: Carcinoembryonic Antigen (CEA) (human) (UniProt P06731); assay: SPR at 25 C; IL-2 qm
[2] = target: Carcinoembryonic Antigen (CEA) (human) (UniProt P06731); assay: SPR at 25 C; IL-2 wt
[3] = target: IL-2R βγ heterodimer on cells (NK92 cells; human NK cells and CD8+ T cells) (human) (UniProt P14784); assay: cell-based or functional assay
[4] = target: human IL-2R βγ heterodimer (IL-2R β subunit-Fc(hole) / IL-2R γ subunit-Fc(knob) fusion) (human); assay: SPR, human IL-2R βγ heterodimer immobilized on the chip, construct as analyte, 25 C; apparent KD, 1:1 fit
[5] = target: human Fibroblast Activation Protein (FAP), recombinant (human) (UniProt Q12884); assay: SPR (Biacore), His-tagged human FAP captured by anti-His antibody, construct as analyte, 25 C; apparent bivalent affinity (avidity), 1:1 fit
[6] = target: human FAP expressed on stably transfected HEK 293 cells (human) (UniProt Q12884); assay: flow cytometry on HEK293 cells stably transfected with human FAP, 4 C, FITC anti-human F(ab')2 detection

Chain of Carcinoembryonic Antigen (CEA) (human) (P06731 35-685 limits assumed): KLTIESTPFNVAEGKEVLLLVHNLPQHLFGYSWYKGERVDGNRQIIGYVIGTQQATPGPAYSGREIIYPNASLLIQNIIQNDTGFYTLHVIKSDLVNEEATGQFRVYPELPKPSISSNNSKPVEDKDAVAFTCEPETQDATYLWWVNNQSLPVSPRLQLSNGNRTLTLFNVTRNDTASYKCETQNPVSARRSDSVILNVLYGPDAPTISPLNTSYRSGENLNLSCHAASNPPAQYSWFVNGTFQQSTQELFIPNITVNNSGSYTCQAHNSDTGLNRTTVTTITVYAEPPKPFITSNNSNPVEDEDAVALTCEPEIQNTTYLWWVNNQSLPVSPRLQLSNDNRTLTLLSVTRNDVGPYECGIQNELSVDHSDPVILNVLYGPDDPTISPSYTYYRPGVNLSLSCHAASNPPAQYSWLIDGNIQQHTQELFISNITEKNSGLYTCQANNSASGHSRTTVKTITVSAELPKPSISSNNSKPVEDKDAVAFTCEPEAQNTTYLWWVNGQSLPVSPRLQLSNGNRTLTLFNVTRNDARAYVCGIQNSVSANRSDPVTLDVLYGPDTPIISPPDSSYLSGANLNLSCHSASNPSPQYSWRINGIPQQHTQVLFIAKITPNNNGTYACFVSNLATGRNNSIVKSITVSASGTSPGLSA
Chain of human IL-2R βγ heterodimer (IL-2R β subunit-Fc(hole) / IL-2R γ subunit-Fc(knob) fusion) (human) (beta, as listed by the source limits assumed, form in doubt, chain 1 of 2): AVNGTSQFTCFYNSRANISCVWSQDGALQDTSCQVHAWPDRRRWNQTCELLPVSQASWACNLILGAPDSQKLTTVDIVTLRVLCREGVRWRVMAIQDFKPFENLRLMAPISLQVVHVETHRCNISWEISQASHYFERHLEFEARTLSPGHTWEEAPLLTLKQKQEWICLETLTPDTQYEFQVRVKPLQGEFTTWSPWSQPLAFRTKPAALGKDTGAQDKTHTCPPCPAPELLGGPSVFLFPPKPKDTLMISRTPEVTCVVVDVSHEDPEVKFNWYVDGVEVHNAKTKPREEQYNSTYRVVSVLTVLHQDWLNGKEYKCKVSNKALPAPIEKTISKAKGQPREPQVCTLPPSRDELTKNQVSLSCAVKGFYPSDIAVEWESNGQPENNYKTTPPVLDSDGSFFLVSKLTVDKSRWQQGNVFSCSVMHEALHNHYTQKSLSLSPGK
Chain of human IL-2R βγ heterodimer (IL-2R β subunit-Fc(hole) / IL-2R γ subunit-Fc(knob) fusion) (human) (gamma, as listed by the source limits assumed, form in doubt, chain 2 of 2): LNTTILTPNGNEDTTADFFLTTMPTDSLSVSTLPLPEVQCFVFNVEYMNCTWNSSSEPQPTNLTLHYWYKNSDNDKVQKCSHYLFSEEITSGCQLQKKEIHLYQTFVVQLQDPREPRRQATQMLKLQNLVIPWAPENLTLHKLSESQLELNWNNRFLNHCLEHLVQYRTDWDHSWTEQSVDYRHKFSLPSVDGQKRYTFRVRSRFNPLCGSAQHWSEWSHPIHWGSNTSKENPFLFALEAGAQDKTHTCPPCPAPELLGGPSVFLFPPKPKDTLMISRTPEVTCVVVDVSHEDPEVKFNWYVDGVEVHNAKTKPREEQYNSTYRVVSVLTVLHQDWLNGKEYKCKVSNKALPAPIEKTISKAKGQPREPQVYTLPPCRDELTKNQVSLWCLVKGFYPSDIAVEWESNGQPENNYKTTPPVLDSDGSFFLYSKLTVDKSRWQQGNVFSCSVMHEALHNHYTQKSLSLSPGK
Chain of IL-2R βγ heterodimer on cells (NK92 cells; human NK cells and CD8+ T cells) (human) (P14784 27-551, chain 1 of 2): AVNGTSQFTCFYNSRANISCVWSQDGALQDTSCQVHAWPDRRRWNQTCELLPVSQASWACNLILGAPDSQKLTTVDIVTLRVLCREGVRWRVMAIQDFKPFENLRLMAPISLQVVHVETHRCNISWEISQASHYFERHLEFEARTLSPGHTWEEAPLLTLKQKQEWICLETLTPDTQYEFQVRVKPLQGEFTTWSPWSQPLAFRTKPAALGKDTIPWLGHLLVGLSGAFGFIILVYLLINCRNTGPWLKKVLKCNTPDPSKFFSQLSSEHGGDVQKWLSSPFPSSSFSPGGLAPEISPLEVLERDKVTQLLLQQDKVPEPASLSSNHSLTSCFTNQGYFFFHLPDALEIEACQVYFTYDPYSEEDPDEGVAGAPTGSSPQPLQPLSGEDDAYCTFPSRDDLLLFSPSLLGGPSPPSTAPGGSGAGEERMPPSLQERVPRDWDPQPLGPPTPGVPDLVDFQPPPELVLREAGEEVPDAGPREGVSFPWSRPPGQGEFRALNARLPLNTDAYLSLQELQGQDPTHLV
Chain of IL-2R βγ heterodimer on cells (NK92 cells; human NK cells and CD8+ T cells) (human) (P31785 23-369, chain 2 of 2, further chain): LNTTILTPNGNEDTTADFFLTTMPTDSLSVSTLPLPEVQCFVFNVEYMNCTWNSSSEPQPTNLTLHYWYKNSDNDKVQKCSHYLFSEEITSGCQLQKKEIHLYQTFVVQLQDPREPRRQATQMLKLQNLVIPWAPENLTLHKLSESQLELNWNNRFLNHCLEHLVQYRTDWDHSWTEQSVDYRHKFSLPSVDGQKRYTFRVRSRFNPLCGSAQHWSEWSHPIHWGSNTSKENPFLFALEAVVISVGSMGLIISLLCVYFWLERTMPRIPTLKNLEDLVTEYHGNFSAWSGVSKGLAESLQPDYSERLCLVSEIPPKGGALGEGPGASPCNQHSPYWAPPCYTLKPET

Kd [1]: 0.4 nM
Substance: CEA-targeted CH1A1A 98/99 2F1-based IgG-IL-2 qm immunoconjugate

Kd [2]: 0.47 nM
Substance: CEA-targeted CH1A1A 98/99 2F1-based IgG-IL-2 wt immunoconjugate

fold decrease in STAT5 phosphorylation in NK cells and CD8+ T cells (FACS); potency relative to Proleukin [3]: < 10 fold
Kd [4]: 5.9 nM
Kd [5]: 0.1 nM
EC50 [6]: 0.9 nM
Substance: FAP-targeted 4G8-based IgG-IL-2 quadruple mutant (qm) immunoconjugate
